{"source": "the RNAGym collection of RNA variant scans (doi:10.7554/elife.80360)", "parents": {"B1": {"name": "Hairpin Ribozyme (parent)", "chain": "GUCCUCUUUCACGUGCGCGUGAAAGAGAGAAGUGAACCAGAGAAACACACGUUGUGGUAUAUUACCUGGUA"}}}
{"variants_of": "B1", "test": "self-cleavage, relative activity (ratio to wild type); higher = more cleavage; co-transcriptional"}
{"variant": "G27U C65A", "self-cleavage": 0.184}
{"variant": "G27C A45C", "self-cleavage": 0.11}
{"variant": "A26U U62A", "self-cleavage": 0.214}
{"variant": "A26U U62C", "self-cleavage": 0.192}
{"variant": "G27U G68U", "self-cleavage": 0.157}
{"variant": "G27U G68C", "self-cleavage": 0.102}
{"variant": "G27U C37A", "self-cleavage": 0.108}
{"variant": "A26U C46U", "self-cleavage": 0.11}
{"variant": "G27U C50A", "self-cleavage": 0.155}
{"variant": "G27C C46U", "self-cleavage": 0.106}
{"variant": "G27C G29C", "self-cleavage": 0.163}
{"variant": "G27A A43C", "self-cleavage": 0.0674}
{"variant": "G27A A59U", "self-cleavage": 0.185}
{"variant": "G27A A59G", "self-cleavage": 0.191}
{"variant": "G27A A59C", "self-cleavage": 0.103}
{"variant": "A26U A64U", "self-cleavage": 0.175}
{"variant": "G27A A35G", "self-cleavage": 0.449}
{"variant": "G27A A35U", "self-cleavage": 0.261}
{"variant": "G27U U52A", "self-cleavage": 0.354}
{"variant": "G27A C46G", "self-cleavage": 0.138}
{"variant": "G27A C46A", "self-cleavage": 0.103}
{"variant": "G27A U53A", "self-cleavage": 0.371}
{"variant": "G27U U53C", "self-cleavage": 0.398}
{"variant": "G27U U53A", "self-cleavage": 0.111}
{"variant": "A26U U58C", "self-cleavage": 0.657}
{"variant": "G27A A36U", "self-cleavage": 0.198}
{"variant": "G27A A30U", "self-cleavage": 0.0812}
{"variant": "G27U A44U", "self-cleavage": 0.169}
{"variant": "G27C U58G", "self-cleavage": 0.188}
{"variant": "G27C U58A", "self-cleavage": 0.123}
{"variant": "A26U G29A", "self-cleavage": 0.198}
{"variant": "G27A C50A", "self-cleavage": 0.104}
{"variant": "G27C C37G", "self-cleavage": 0.239}
{"variant": "G27C C37U", "self-cleavage": 0.0764}
{"variant": "G27C A59C", "self-cleavage": 0.104}
{"variant": "G27C A59G", "self-cleavage": 0.0478}
{"variant": "G27C A44C", "self-cleavage": 0.0898}
{"variant": "G27U A71C", "self-cleavage": 0.904}
{"variant": "G27C G42U", "self-cleavage": 0.172}
{"variant": "A26U G34U", "self-cleavage": 1.37}
{"variant": "G27C G69U", "self-cleavage": 0.162}
{"variant": "G27U G51A", "self-cleavage": 0.307}
{"variant": "A26U G56A", "self-cleavage": 0.129}
{"variant": "A26U G56U", "self-cleavage": 0.279}
{"variant": "G27U G56U", "self-cleavage": 0.108}
{"variant": "G27U G56A", "self-cleavage": 0.0845}
{"variant": "G27A C37U", "self-cleavage": 0.32}
{"variant": "G27A C37A", "self-cleavage": 0.219}
{"variant": "G27C A61G", "self-cleavage": 0.237}
{"variant": "G27C A61C", "self-cleavage": 0.0843}
{"variant": "A26U U63G", "self-cleavage": 0.158}
{"variant": "G27C C48G", "self-cleavage": 0.164}
{"variant": "G27C C48A", "self-cleavage": 0.0978}
{"variant": "G27C A64U", "self-cleavage": 0.184}
{"variant": "G27C A64C", "self-cleavage": 0.128}
{"variant": "G27A G69A", "self-cleavage": 0.155}
{"variant": "G27A G51C", "self-cleavage": 0.238}
{"variant": "G27U G40U", "self-cleavage": 0.0783}
{"variant": "G27U G40C", "self-cleavage": 0.0532}
{"variant": "G27A A44G", "self-cleavage": 0.0958}
{"variant": "G27A A47U", "self-cleavage": 0.111}
{"variant": "G27C A35U", "self-cleavage": 0.0854}
{"variant": "G27U A43G", "self-cleavage": 0.169}
{"variant": "G27U A43C", "self-cleavage": 0.0898}
{"variant": "G27U U33G", "self-cleavage": 0.145}
{"variant": "A26U U67G", "self-cleavage": 0.2}
{"variant": "A26U C65G", "self-cleavage": 0.111}
{"variant": "A26U U70A", "self-cleavage": 0.575}
{"variant": "A26U U70G", "self-cleavage": 0.397}
{"variant": "A26U G42C", "self-cleavage": 0.139}
{"variant": "A26U G42U", "self-cleavage": 0.173}
{"variant": "G27U U63A", "self-cleavage": 0.0592}
{"variant": "G27U U63G", "self-cleavage": 0.243}
{"variant": "G27C A28U", "self-cleavage": 0.138}
{"variant": "G27C A28G", "self-cleavage": 0.128}
{"variant": "G27C A28C", "self-cleavage": 0.164}
{"variant": "G27C A49C", "self-cleavage": 0.203}
{"variant": "G27C A49G", "self-cleavage": 0.075}
{"variant": "G27C A47U", "self-cleavage": 0.0683}
{"variant": "G27C G32C", "self-cleavage": 0.13}
{"variant": "G27C G32A", "self-cleavage": 0.191}
{"variant": "G27U G57C", "self-cleavage": 0.159}
{"variant": "A26U U52C", "self-cleavage": 0.656}
{"variant": "G27C C65G", "self-cleavage": 0.152}
{"variant": "G27A G42A", "self-cleavage": 0.153}
{"variant": "G27U G29C", "self-cleavage": 0.101}
{"variant": "G27U G29U", "self-cleavage": 0.119}
{"variant": "G27U G29A", "self-cleavage": 0.225}
{"variant": "G27U G42C", "self-cleavage": 0.0625}
{"variant": "G27U G42A", "self-cleavage": 0.149}
{"variant": "A26U G54A", "self-cleavage": 0.318}
{"variant": "A26U U33G", "self-cleavage": 0.107}
{"variant": "G27C G68U", "self-cleavage": 0.147}
{"variant": "G27C A30U", "self-cleavage": 0.255}
{"variant": "G27C U60G", "self-cleavage": 0.0405}
{"variant": "A26U G69C", "self-cleavage": 0.247}
{"variant": "G27U G32U", "self-cleavage": 0.211}
{"variant": "G27U G32A", "self-cleavage": 0.104}
{"variant": "A26U U55A", "self-cleavage": 0.082}
{"variant": "G27A A61C", "self-cleavage": 0.107}
{"variant": "G27A U58C", "self-cleavage": 0.516}
{"variant": "G27C U62C", "self-cleavage": 0.12}
{"variant": "G27C U62G", "self-cleavage": 0.161}
{"variant": "G27C C66G", "self-cleavage": 0.156}
{"variant": "G27A G40U", "self-cleavage": 0.179}
{"variant": "G27C U70G", "self-cleavage": 0.122}
{"variant": "G27U U60C", "self-cleavage": 0.383}
{"variant": "A26U G32A", "self-cleavage": 0.154}
{"variant": "A26U G32C", "self-cleavage": 0.128}
{"variant": "G27U A49C", "self-cleavage": 0.225}
{"variant": "G27C A31C", "self-cleavage": 0.131}
{"variant": "G27C A31G", "self-cleavage": 0.124}
{"variant": "G27A G57A", "self-cleavage": 0.145}
{"variant": "G27A A64C", "self-cleavage": 0.189}
{"variant": "G27A U55C", "self-cleavage": 0.211}
{"variant": "G27A U55G", "self-cleavage": 0.144}
{"variant": "G27A C66U", "self-cleavage": 0.13}
{"variant": "A26U C48U", "self-cleavage": 0.0687}
{"variant": "G27C C50A", "self-cleavage": 0.242}
{"variant": "G27A A45U", "self-cleavage": 0.201}
{"variant": "G27U A59C", "self-cleavage": 0.0836}
{"variant": "G27U A59G", "self-cleavage": 0.209}
{"variant": "G27A U52A", "self-cleavage": 0.337}
{"variant": "G27U A61C", "self-cleavage": 0.149}
{"variant": "A26U C50G", "self-cleavage": 0.148}
{"variant": "A26U C50A", "self-cleavage": 0.209}
{"variant": "G27C U67A", "self-cleavage": 0.104}
{"variant": "G27U U62A", "self-cleavage": 0.137}
{"variant": "G27A G56A", "self-cleavage": 0.116}
{"variant": "G27C A43U", "self-cleavage": 0.151}
{"variant": "G27U A47C", "self-cleavage": 0.157}
{"variant": "G27U A47G", "self-cleavage": 0.222}
{"variant": "A26U U60C", "self-cleavage": 0.898}
{"variant": "A26U U60G", "self-cleavage": 0.437}
{"variant": "G27U A41C", "self-cleavage": 0.423}
{"variant": "A26U A71U", "self-cleavage": 0.433}
{"variant": "G27U C38U", "self-cleavage": 0.157}
{"variant": "G27A U33A", "self-cleavage": 0.0964}
{"variant": "G27U A30G", "self-cleavage": 0.0852}
{"variant": "G27A U70A", "self-cleavage": 0.426}
{"variant": "G27A U70C", "self-cleavage": 0.391}
{"variant": "G27A C38G", "self-cleavage": 0.0969}
{"variant": "G27U A28C", "self-cleavage": 0.179}
{"variant": "A26U U53C", "self-cleavage": 0.599}
{"variant": "G27U U58G", "self-cleavage": 0.225}
{"variant": "G27U U58A", "self-cleavage": 0.153}
{"variant": "G27U U70A", "self-cleavage": 0.172}
{"variant": "A26U G68A", "self-cleavage": 0.23}
{"variant": "G27U C46A", "self-cleavage": 0.13}
{"variant": "G27U C46G", "self-cleavage": 0.0944}
{"variant": "G27A A41C", "self-cleavage": 0.602}
{"variant": "G27A A41G", "self-cleavage": 0.261}
{"variant": "G27A A41U", "self-cleavage": 0.744}
{"variant": "G27U A31G", "self-cleavage": 0.164}
{"variant": "A26U G27U", "self-cleavage": 0.0812}
{"variant": "G27A G29C", "self-cleavage": 0.12}
{"variant": "G27A U63A", "self-cleavage": 0.103}
{"variant": "G27A U63G", "self-cleavage": 0.134}
{"variant": "G27A U63C", "self-cleavage": 0.236}
{"variant": "G27U C48A", "self-cleavage": 0.0902}
{"variant": "G27C G51C", "self-cleavage": 0.135}
{"variant": "G27C G51U", "self-cleavage": 0.17}
{"variant": "G27U G34U", "self-cleavage": 1.15}
{"variant": "G27U G34A", "self-cleavage": 0.282}
{"variant": "G27A A71U", "self-cleavage": 0.28}
{"variant": "G27C A39U", "self-cleavage": 0.0549}
{"variant": "G27C U63G", "self-cleavage": 0.101}
